# Data as given in IntAct's records for PubMed 10524631.
# B1: Phytochrome A (Arabidopsis thaliana (Mouse-ear cress)), P14712 (parent)
# chain: MSGSRPTQSSEGSRRSRHSARIIAQTTVDAKLHADFEESGSSFDYSTSVRVTGPVVENQPPRSDKVTTTYLHHIQKGKLIQPFGCLLALDEKTFKVIAYSENASELLTMASHAVPSVGEHPVLGIGTDIRSLFTAPSASALQKALGFGDVSLLNPILVHCRTSAKPFYAIIHRVTGSIIIDFEPVKPYEVPMTAAGALQSYKLAAKAITRLQSLPSGSMERLCDTMVQEVFELTGYDRVMAYKFHEDDHGEVVSEVTKPGLEPYLGLHYPATDIPQAARFLFMKNKVRMIVDCNAKHARVLQDEKLSFDLTLCGSTLRAPHSCHLQYMANMDSIASLVMAVVVNEEDGEGDAPDATTQPQKRKRLWGLVVCHNTTPRFVPFPLRYACEFLAQVFAIHVNKEVELDNQMVEKNILRTQTLLCDMLMRDAPLGIVSQSPNIMDLVKCDGAALLYKDKIWKLGTTPSEFHLQEIASWLCEYHMDSTGLSTDSLHDAGFPRALSLGDSVCGMAAVRISSKDMIFWFRSHTAGEVRWGGAKHDPDDRDDARRMHPRSSFKAFLEVVKTRSLPWKDYEMDAIHSLQLILRNAFKDSETTDVNTKVIYSKLNDLKIDGIQELEAVTSEMVRLIETATVPILAVDSDGLVNGWNTKIAELTGLSVDEAIGKHFLTLVEDSSVEIVKRMLENALEGTEEQNVQFEIKTHLSRADAGPISLVVNACASRDLHENVVGVCFVAHDLTGQKTVMDKFTRIEGDYKAIIQNPNPLIPPIFGTDEFGWCTEWNPAMSKLTGLKREEVIDKMLLGEVFGTQKSCCRLKNQEAFVNLGIVLNNAVTSQDPEKVSFAFFTRGGKYVECLLCVSKKLDREGVVTGVFCFLQLASHELQQALHVQRLAERTAVKRLKALAYIKRQIRNPLSGIMFTRKMIEGTELGPEQRRILQTSALCQKQLSKILDDSDLESIIEGCLDLEMKEFTLNEVLTASTSQVMMKSNGKSVRITNETGEEVMSDTLYGDSIRLQQVLADFMLMAVNFTPSGGQLTVSASLRKDQLGRSVHLANLEIRLTHTGAGIPEFLLNQMFGTEEDVSEEGLSLMVSRKLVKLMNGDVQYLRQAGKSSFIITAELAAANK
# partner: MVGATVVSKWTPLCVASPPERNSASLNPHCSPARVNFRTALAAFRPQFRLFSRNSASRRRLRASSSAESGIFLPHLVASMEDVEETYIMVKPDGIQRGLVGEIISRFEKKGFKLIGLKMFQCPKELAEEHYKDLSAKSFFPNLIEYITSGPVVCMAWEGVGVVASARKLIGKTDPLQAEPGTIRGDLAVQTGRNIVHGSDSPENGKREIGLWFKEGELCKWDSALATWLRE
# Variants of: B1
# Conditions: with ndk2_arath NDPK2, O64903
row,Variant,effect of a mutation on the interaction
1,G727E,decreasing interaction
2,G750E,decreasing interaction strength
